Laboratory results: patent publication US20110287963A1

Key:
[1] = target: GCN4 leucine zipper (wild-type) fused to the α fragment of β-lactamase (E. coli (plasmid pBR322)) (UniProt P03069); assay: cell-based or functional assay
[2] = target: GCN4-PP, double proline mutant of the GCN4 leucine zipper, fused to the α fragment of β-lactamase (E. coli (plasmid pBR322)) (UniProt P03069); assay: cell-based or functional assay

scFv-GCN4 fused to the ω fragment of β-lactamase (pDMB-P1-ωBLA construct)
MBC (minimum bacteriocidal concentration) on ampicillin, fold over the α-Jun negative control [1]: 2 fold | MBC (minimum bacteriocidal concentration) on ampicillin, fold over the α-Jun negative control [2]: 16 fold
